# Experimental data from patent publication US6084068, “Elongin A and C functional domains” (Oklahoma Medical Research Foundation, dated 2000).
# T1: Elongin BC complex (wild type rat Elongin B and C) (rat, UniProt P62870)
# T1 chain 1: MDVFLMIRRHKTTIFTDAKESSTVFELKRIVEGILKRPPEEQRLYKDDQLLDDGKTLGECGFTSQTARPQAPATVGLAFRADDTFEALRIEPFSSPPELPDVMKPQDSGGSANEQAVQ
# T1 chain 2: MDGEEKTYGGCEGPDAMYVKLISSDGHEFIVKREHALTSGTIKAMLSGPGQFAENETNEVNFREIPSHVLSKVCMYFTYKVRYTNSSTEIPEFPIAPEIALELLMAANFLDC
# Target: T1, Elongin BC complex (wild type rat …)
# Assay: refolded with wild type Elongin B and C; TSK SP-NPR HPLC, SDS-PAGE, silver staining
row,Binder,binding result
1,Elongin A mutant composed of residues 500 to 700 (other) LELISSFQPKRKAFSSPQEEEEAGFTGRRMNSKMQVYSGSKCAYLPKMMTLHQQCIRVLKNNIDSIFEVGGVPYSVLEPVLERCTPDQLYRIEECNHVLIEETDQLWKVHCHRDFKEERPEEYESWREMYLRLQDAREQRLRLLTNNIRSAHANKPKGRQAKMAFVNSVAKPPRDVRRRQEKFGTGGAAVPEKVRIKPAPY,binds
2,Elongin A internal deletion mutant Δ586-610 (other) MAAESALQVVEKLQARLAANPDPKKLLKYLKKLSVLPITVDILVETGVGKTVNSFRKHEQVGNFARDLVAQWKKLVPVERNNEAEDQDFEKSNSRKRPRDVPQQEEEAEGNYQESWQASGSQPYSPEHRQKKHRKLPELERPHKVAHGHERRDERKRCHKVSPPYSSDPESSDYGHVQSPPPSSPHQMYTDLSRSPEMDQEPIVSHPKPGKVHSNTFQDRLGVSHLGEHQGKGAVSQNKPHKSSHKEKRPVDARGDEKSSVMGREKSHKASSKEESRRLLSEDSAKEKLPSSVVKKEKDREGNSLKKKLSPALDVASDNHFKKPKHKDSEKIKSDKNKQSVDSVDSGRGTGDPLPRAKDKVPNNLKAQEGKVRTNSDRKSPGSLPKVEEMDMDDEFEQPTMSFESYLSYDQPRKKKKKVVKTSGTALGEKGLKKKDSKSTSKNLNSAQKLPKANENKSDKLQPAGAEPTRPRKVPTDVLPALPDIPLPAIQTNYRPLPSLELISSFQPKRKAFSSPQEEEEAGFTGRRMNSKMQVYSGSKCAYLPKMMTLHQQCIRVLKNNIDSIFEVGGVPYSVLEPVLERCTPHRDFKEERPEEYESWREMYLRLQDAREQRLRLLTNNIRSAHANKPKGRQAKMAFVNSVAKPPRDVRRRQEKFGTGGAAVPEKVRIKPAPYTTGSSHVPASNSSSSFHSSPEELAYEGPSTSSAHLAPVASSSVSYDPRKPAVKKIAPMMAKTIKAFKNRFSRR,binds
3,wild type Elongin A (other) MAAESALQVVEKLQARLAANPDPKKLLKYLKKLSVLPITVDILVETGVGKTVNSFRKHEQVGNFARDLVAQWKKLVPVERNNEAEDQDFEKSNSRKRPRDVPQQEEEAEGNYQESWQASGSQPYSPEHRQKKHRKLPELERPHKVAHGHERRDERKRCHKVSPPYSSDPESSDYGHVQSPPPSSPHQMYTDLSRSPEMDQEPIVSHPKPGKVHSNTFQDRLGVSHLGEHQGKGAVSQNKPHKSSHKEKRPVDARGDEKSSVMGREKSHKASSKEESRRLLSEDSAKEKLPSSVVKKEKDREGNSLKKKLSPALDVASDNHFKKPKHKDSEKIKSDKNKQSVDSVDSGRGTGDPLPRAKDKVPNNLKAQEGKVRTNSDRKSPGSLPKVEEMDMDDEFEQPTMSFESYLSYDQPRKKKKKVVKTSGTALGEKGLKKKDSKSTSKNLNSAQKLPKANENKSDKLQPAGAEPTRPRKVPTDVLPALPDIPLPAIQTNYRPLPSLELISSFQPKRKAFSSPQEEEEAGFTGRRMNSKMQVYSGSKCAYLPKMMTLHQQCIRVLKNNIDSIFEVGGVPYSVLEPVLERCTPDQLYRIEECNHVLIEETDQLWKVHCHRDFKEERPEEYESWREMYLRLQDAREQRLRLLTNNIRSAHANKPKGRQAKMAFVNSVAKPPRDVRRRQEKFGTGGAAVPEKVRIKPAPYTTGSSHVPASNSSSSFHSSPEELAYEGPSTSSAHLAPVASSSVSYDPRKPAVKKIAPMMAKTIKAFKNRFSRR,binds
4,Elongin A mutant composed of residues 500 to 730 (other) LELISSFQPKRKAFSSPQEEEEAGFTGRRMNSKMQVYSGSKCAYLPKMMTLHQQCIRVLKNNIDSIFEVGGVPYSVLEPVLERCTPDQLYRIEECNHVLIEETDQLWKVHCHRDFKEERPEEYESWREMYLRLQDAREQRLRLLTNNIRSAHANKPKGRQAKMAFVNSVAKPPRDVRRRQEKFGTGGAAVPEKVRIKPAPYTTGSSHVPASNSSSSFHSSPEELAYEGPST,binds
5,Elongin A internal deletion mutant Δ545-548 (other) MAAESALQVVEKLQARLAANPDPKKLLKYLKKLSVLPITVDILVETGVGKTVNSFRKHEQVGNFARDLVAQWKKLVPVERNNEAEDQDFEKSNSRKRPRDVPQQEEEAEGNYQESWQASGSQPYSPEHRQKKHRKLPELERPHKVAHGHERRDERKRCHKVSPPYSSDPESSDYGHVQSPPPSSPHQMYTDLSRSPEMDQEPIVSHPKPGKVHSNTFQDRLGVSHLGEHQGKGAVSQNKPHKSSHKEKRPVDARGDEKSSVMGREKSHKASSKEESRRLLSEDSAKEKLPSSVVKKEKDREGNSLKKKLSPALDVASDNHFKKPKHKDSEKIKSDKNKQSVDSVDSGRGTGDPLPRAKDKVPNNLKAQEGKVRTNSDRKSPGSLPKVEEMDMDDEFEQPTMSFESYLSYDQPRKKKKKVVKTSGTALGEKGLKKKDSKSTSKNLNSAQKLPKANENKSDKLQPAGAEPTRPRKVPTDVLPALPDIPLPAIQTNYRPLPSLELISSFQPKRKAFSSPQEEEEAGFTGRRMNSKMQVYSGSKCAYLTLHQQCIRVLKNNIDSIFEVGGVPYSVLEPVLERCTPDQLYRIEECNHVLIEETDQLWKVHCHRDFKEERPEEYESWREMYLRLQDAREQRLRLLTNNIRSAHANKPKGRQAKMAFVNSVAKPPRDVRRRQEKFGTGGAAVPEKVRIKPAPYTTGSSHVPASNSSSSFHSSPEELAYEGPSTSSAHLAPVASSSVSYDPRKPAVKKIAPMMAKTIKAFKNRFSRR,binds
6,Elongin A internal deletion mutant Δ651-690 (other) MAAESALQVVEKLQARLAANPDPKKLLKYLKKLSVLPITVDILVETGVGKTVNSFRKHEQVGNFARDLVAQWKKLVPVERNNEAEDQDFEKSNSRKRPRDVPQQEEEAEGNYQESWQASGSQPYSPEHRQKKHRKLPELERPHKVAHGHERRDERKRCHKVSPPYSSDPESSDYGHVQSPPPSSPHQMYTDLSRSPEMDQEPIVSHPKPGKVHSNTFQDRLGVSHLGEHQGKGAVSQNKPHKSSHKEKRPVDARGDEKSSVMGREKSHKASSKEESRRLLSEDSAKEKLPSSVVKKEKDREGNSLKKKLSPALDVASDNHFKKPKHKDSEKIKSDKNKQSVDSVDSGRGTGDPLPRAKDKVPNNLKAQEGKVRTNSDRKSPGSLPKVEEMDMDDEFEQPTMSFESYLSYDQPRKKKKKVVKTSGTALGEKGLKKKDSKSTSKNLNSAQKLPKANENKSDKLQPAGAEPTRPRKVPTDVLPALPDIPLPAIQTNYRPLPSLELISSFQPKRKAFSSPQEEEEAGFTGRRMNSKMQVYSGSKCAYLPKMMTLHQQCIRVLKNNIDSIFEVGGVPYSVLEPVLERCTPDQLYRIEECNHVLIEETDQLWKVHCHRDFKEERPEEYESWREMYLRLQDAREQRLRLLTNNIRSAEKVRIKPAPYTTGSSHVPASNSSSSFHSSPEELAYEGPSTSSAHLAPVASSSVSYDPRKPAVKKIAPMMAKTIKAFKNRFSRR,binds
7,Elongin A internal deletion mutant Δ691-730 (other) MAAESALQVVEKLQARLAANPDPKKLLKYLKKLSVLPITVDILVETGVGKTVNSFRKHEQVGNFARDLVAQWKKLVPVERNNEAEDQDFEKSNSRKRPRDVPQQEEEAEGNYQESWQASGSQPYSPEHRQKKHRKLPELERPHKVAHGHERRDERKRCHKVSPPYSSDPESSDYGHVQSPPPSSPHQMYTDLSRSPEMDQEPIVSHPKPGKVHSNTFQDRLGVSHLGEHQGKGAVSQNKPHKSSHKEKRPVDARGDEKSSVMGREKSHKASSKEESRRLLSEDSAKEKLPSSVVKKEKDREGNSLKKKLSPALDVASDNHFKKPKHKDSEKIKSDKNKQSVDSVDSGRGTGDPLPRAKDKVPNNLKAQEGKVRTNSDRKSPGSLPKVEEMDMDDEFEQPTMSFESYLSYDQPRKKKKKVVKTSGTALGEKGLKKKDSKSTSKNLNSAQKLPKANENKSDKLQPAGAEPTRPRKVPTDVLPALPDIPLPAIQTNYRPLPSLELISSFQPKRKAFSSPQEEEEAGFTGRRMNSKMQVYSGSKCAYLPKMMTLHQQCIRVLKNNIDSIFEVGGVPYSVLEPVLERCTPDQLYRIEECNHVLIEETDQLWKVHCHRDFKEERPEEYESWREMYLRLQDAREQRLRLLTNNIRSAHANKPKGRQAKMAFVNSVAKPPRDVRRRQEKFGTGGAAVPSSAHLAPVASSSVSYDPRKPAVKKIAPMMAKTIKAFKNRFSRR,binds
8,Elongin A internal deletion mutant Δ566-585 (other) MAAESALQVVEKLQARLAANPDPKKLLKYLKKLSVLPITVDILVETGVGKTVNSFRKHEQVGNFARDLVAQWKKLVPVERNNEAEDQDFEKSNSRKRPRDVPQQEEEAEGNYQESWQASGSQPYSPEHRQKKHRKLPELERPHKVAHGHERRDERKRCHKVSPPYSSDPESSDYGHVQSPPPSSPHQMYTDLSRSPEMDQEPIVSHPKPGKVHSNTFQDRLGVSHLGEHQGKGAVSQNKPHKSSHKEKRPVDARGDEKSSVMGREKSHKASSKEESRRLLSEDSAKEKLPSSVVKKEKDREGNSLKKKLSPALDVASDNHFKKPKHKDSEKIKSDKNKQSVDSVDSGRGTGDPLPRAKDKVPNNLKAQEGKVRTNSDRKSPGSLPKVEEMDMDDEFEQPTMSFESYLSYDQPRKKKKKVVKTSGTALGEKGLKKKDSKSTSKNLNSAQKLPKANENKSDKLQPAGAEPTRPRKVPTDVLPALPDIPLPAIQTNYRPLPSLELISSFQPKRKAFSSPQEEEEAGFTGRRMNSKMQVYSGSKCAYLPKMMTLHQQCIRVLKNNIDSIDQLYRIEECNHVLIEETDQLWKVHCHRDFKEERPEEYESWREMYLRLQDAREQRLRLLTNNIRSAHANKPKGRQAKMAFVNSVAKPPRDVRRRQEKFGTGGAAVPEKVRIKPAPYTTGSSHVPASNSSSSFHSSPEELAYEGPSTSSAHLAPVASSSVSYDPRKPAVKKIAPMMAKTIKAFKNRFSRR,binds
9,Elongin A internal deletion mutant Δ611-650 (other) MAAESALQVVEKLQARLAANPDPKKLLKYLKKLSVLPITVDILVETGVGKTVNSFRKHEQVGNFARDLVAQWKKLVPVERNNEAEDQDFEKSNSRKRPRDVPQQEEEAEGNYQESWQASGSQPYSPEHRQKKHRKLPELERPHKVAHGHERRDERKRCHKVSPPYSSDPESSDYGHVQSPPPSSPHQMYTDLSRSPEMDQEPIVSHPKPGKVHSNTFQDRLGVSHLGEHQGKGAVSQNKPHKSSHKEKRPVDARGDEKSSVMGREKSHKASSKEESRRLLSEDSAKEKLPSSVVKKEKDREGNSLKKKLSPALDVASDNHFKKPKHKDSEKIKSDKNKQSVDSVDSGRGTGDPLPRAKDKVPNNLKAQEGKVRTNSDRKSPGSLPKVEEMDMDDEFEQPTMSFESYLSYDQPRKKKKKVVKTSGTALGEKGLKKKDSKSTSKNLNSAQKLPKANENKSDKLQPAGAEPTRPRKVPTDVLPALPDIPLPAIQTNYRPLPSLELISSFQPKRKAFSSPQEEEEAGFTGRRMNSKMQVYSGSKCAYLPKMMTLHQQCIRVLKNNIDSIFEVGGVPYSVLEPVLERCTPDQLYRIEECNHVLIEETDQLWKVHCHANKPKGRQAKMAFVNSVAKPPRDVRRRQEKFGTGGAAVPEKVRIKPAPYTTGSSHVPASNSSSSFHSSPEELAYEGPSTSSAHLAPVASSSVSYDPRKPAVKKIAPMMAKTIKAFKNRFSRR,binds
